We go through 29 molecules from publication PMC9352680, “A comprehensive thermodynamic model for RNA binding by the Saccharomyces cerevisiae Pumilio protein PUF4”.

A value given as a limit tells only on which side of the number the result lay.

T1: PUF4 RNA-binding domain (Saccharomyces cerevisiae, UniProt P25339 537-888)
T1 sequence: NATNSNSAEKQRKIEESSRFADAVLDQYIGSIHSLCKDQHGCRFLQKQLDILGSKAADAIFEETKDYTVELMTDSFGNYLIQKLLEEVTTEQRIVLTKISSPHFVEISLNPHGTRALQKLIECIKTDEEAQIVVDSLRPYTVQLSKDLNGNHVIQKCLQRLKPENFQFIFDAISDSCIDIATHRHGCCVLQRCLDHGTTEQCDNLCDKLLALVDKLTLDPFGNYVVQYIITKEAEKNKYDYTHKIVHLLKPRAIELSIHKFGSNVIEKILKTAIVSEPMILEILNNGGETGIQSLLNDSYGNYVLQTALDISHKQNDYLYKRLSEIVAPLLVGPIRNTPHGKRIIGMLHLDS

B1: Ic_S1_P3E.1_K3.1_C3.1_H3.1_A3.1_[T5G]_[A6T]_F3.1_[A8T]_T3.1 (ssRNA)
RNA: UCUCUUUGUAGUUUUCUCUU
B2: Ic_S1_P3E.1_K3.1_C3.1_H3.1_A3.1_[T5C]_[A6C]_F3.1_[A8C]_T3.1 (ssRNA)
RNA: UCUCUUUGUACCUCUCUCUU
B3: Ic_S1_P3E.1_K3.1_C3.1_H3.1_A3.1_[T5C]_[A6C]_F3.1_[T7G]_[A8C]_T3.1 (ssRNA)
RNA: UCUCUUUGUACCGCUCUCUU
B4: Ic_S1_P3E.1_K3.1_C3.1_H3.1_A3.1_[T5G]_[A6T]_F3.1_[T7G]_[A8T]_T3.1 (ssRNA)
RNA: UCUCUUUGUAGUGUUCUCUU
B5: Ic_S1_P3E.1_K3.1_C3.1_H3.1_A3.1_[T5C]_[A6G]_F3.1_[T7A]_[A8T]_T3.1 (ssRNA)
RNA: UCUCUUUGUACGAUUCUCUU
B6: Ic_S1_P3E.1_K3.1_C3.1_H3.1_A3.1_[T5A]_[A6G]_F3.1_[T7C]_T3.1 (ssRNA)
RNA: UCUCUUUGUAAGCAUCUCUU
B7: Ic_S1_P3E.1_K3.1_C3.1_H3.1_A3.1_[T5C]_F3.1_[T7A]_[A8G]_T3.1 (ssRNA)
RNA: UCUCUUUGUACAAGUCUCUU
B8: Ic_S1_P3E.1_K3.1_C3.1_H3.1_A3.1_[T5C]_F3.1_[T7G]_[A8C]_T3.1 (ssRNA)
RNA: UCUCUUUGUACAGCUCUCUU
B9: Ic_S1_P3E.1_K3.1_C3.1_H3.1_A3.1_[T5C]_[A6C]_F3.1_[A8G]_T3.1 (ssRNA)
RNA: UCUCUUUGUACCUGUCUCUU
B10: Ic_S1_P3E.1_K3.1_C3.1_H3.1_A3.1_[T5C]_[A6C]_F3.1_[T7A]_[A8T]_T3.1 (ssRNA)
RNA: UCUCUUUGUACCAUUCUCUU
B11: Ic_S1_P3E.1_K3.1_C3.1_H3.1_A3.1_[T5C]_[A6T]_F3.1_[T7C]_[A8C]_T3.1 (ssRNA)
RNA: UCUCUUUGUACUCCUCUCUU
B12: Ic_S1_P3E.1_K3.1_C3.1_H3.1_A3.1_[T5C]_[A6T]_F3.1_[A8C]_T3.1 (ssRNA)
RNA: UCUCUUUGUACUUCUCUCUU
B13: Ic_S1_P3E.1_K3.1_C3.1_H3.1_A3.1_[T5C]_[A6T]_F3.1_[A8G]_T3.1 (ssRNA)
RNA: UCUCUUUGUACUUGUCUCUU
B14: Ic_S1_P3E.1_K3.1_C3.1_H3.1_A3.1_[T5C]_F3.1_[T7A]_[A8C]_T3.1 (ssRNA)
RNA: UCUCUUUGUACAACUCUCUU
B15: Ic_S1_P3E.1_K3.1_C3.1_H3.1_A3.1_[T5C]_[A6T]_F3.1_[T7G]_[A8C]_T3.1 (ssRNA)
RNA: UCUCUUUGUACUGCUCUCUU
B16: Ic_S1_P3E.1_K3.1_C3.1_H3.1_A3.1_[T5G]_[A6T]_F3.1_[A8G]_T3.1 (ssRNA)
RNA: UCUCUUUGUAGUUGUCUCUU
B17: Ic_S1_P3E.1_K3.1_C3.1_H3.1_A3.1_[T5C]_[A6C]_F3.1_[T7G]_[A8T]_T3.1 (ssRNA)
RNA: UCUCUUUGUACCGUUCUCUU
B18: Ic_S1_P3E.1_K3.1_C3.1_H3.1_A3.1_[T5A]_[A6G]_F3.1_[T7C]_[A8T]_T3.1 (ssRNA)
RNA: UCUCUUUGUAAGCUUCUCUU
B19: Ic_S1_P3E.1_K3.1_C3.1_H3.1_A3.1_[T5C]_[A6T]_F3.1_[T7G]_[A8G]_T3.1 (ssRNA)
RNA: UCUCUUUGUACUGGUCUCUU
B20: Ic_S1_P3E.1_K3.1_C3.1_H3.1_A3.1_[T5C]_[A6C]_F3.1_[T7C]_T3.1 (ssRNA)
RNA: UCUCUUUGUACCCAUCUCUU
B21: Ic_S1_P3E.1_K3.1_C3.1_H3.1_A3.1_[T5G]_[A6T]_F3.1_[T7C]_[A8T]_T3.1 (ssRNA)
RNA: UCUCUUUGUAGUCUUCUCUU
B22: Ic_S1_P3E.1_K3.1_C3.1_H3.1_A3.1_[T5C]_F3.1_[T7C]_[A8C]_T3.1 (ssRNA)
RNA: UCUCUUUGUACACCUCUCUU
B23: Ic_S1_P3E.1_K3.1_C3.1_H3.1_A3.1_[T5C]_[A6C]_F3.1_[T7C]_[A8C]_T3.1 (ssRNA)
RNA: UCUCUUUGUACCCCUCUCUU
B24: Ic_S1_P3E.1_K3.1_C3.1_H3.1_A3.1_[T5A]_[A6G]_F3.1_[T7C]_[A8G]_T3.1 (ssRNA)
RNA: UCUCUUUGUAAGCGUCUCUU
B25: Ic_S1_P3E.1_K3.1_C3.1_H3.1_A3.1_[T5C]_[A6C]_F3.1_[T7A]_[A8C]_T3.1 (ssRNA)
RNA: UCUCUUUGUACCACUCUCUU
B26: Ic_S1_P3E.1_K3.1_C3.1_H3.1_A3.1_[T5C]_[A6C]_F3.1_[T7C]_[A8T]_T3.1 (ssRNA)
RNA: UCUCUUUGUACCCUUCUCUU
B27: Ic_S1_P3E.1_K3.1_C3.1_H3.1_A3.1_[T5C]_[A6T]_F3.1_[T7C]_[A8T]_T3.1 (ssRNA)
RNA: UCUCUUUGUACUCUUCUCUU
B28: Ic_S1_P3E.1_K3.1_C3.1_H3.1_A3.1_[T5G]_[A6T]_F3.1_[T7A]_T3.1 (ssRNA)
RNA: UCUCUUUGUAGUAAUCUCUU
B29: Ic_S1_P3E.1_K3.1_C3.1_H3.1_A3.1_[T5C]_[A6T]_F3.1_[T7C]_T3.1 (ssRNA)
RNA: UCUCUUUGUACUCAUCUCUU

The target of this series is T1, PUF4 RNA-binding domain. As to the kind of experiment: Mg; RNA-MaP; 20 mM Na-HEPES pH 7.4, 30 mM KOAc, 0.75 mM MgCl2, 0.1% Tween-20, 5% glycerol, 0.1 mg/mL BSA, 2 mM DTT; 25 C; 0.0125-409.6 nM protein. As to conditions: tags: N-His6-TEV cleaved; C-SNAP kept, Cy3B-labelled; label: tethered on chip by stalled RNA polymerase.
On to B1, for which the affinity, expressed as Kd, was 403 nM.

Turning to B2, the Kd (in general, the concentration at which binding is half-saturated) was 157 nM.

In turn, B3 displayed a Kd of 989 nM.

For B4, the Kd came out at 659 nM.

B5 showed a Kd of 29.9 nM.

B6 showed a Kd greater than 2300 nM.

Molecule B7 came in with a Kd of 704 nM.

As to B8, the Kd is 76.7 nM.

Molecule B9 displayed a Kd of 115 nM.

With B10, binding was characterised by a dissociation constant (Kd) of 8.04 nM.

The molecule B11 yielded a Kd of 384 nM.

Turning to B12, the Kd is 190 nM. Against the preceding molecule, the Kd is about 2-fold lower.

Take B13: the Kd was 112 nM.

B14 came in with a Kd of 50.4 nM. Compared with the last molecule, the Kd is about 2.2-fold lower.

B15 had a Kd of 842 nM.

In turn, B16 had a Kd of 1680 nM.

In turn, B17 displayed a Kd of 391 nM.

Molecule B18 registered a Kd of 653 nM.

For the molecule B19, binding was characterised by a dissociation constant (Kd) of 1060 nM.

In the case of B20, the Kd came out at 429 nM. This Kd is about 2.5-fold lower than that of the molecule before.

Molecule B21 showed a Kd of 513 nM. The Kd values of the last two molecules are within 1.5-fold of each other.

B22 displayed a Kd of 41.8 nM.

With B23, binding was characterised by a dissociation constant (Kd) of 953 nM. Compared with the last molecule, the Kd is about 23-fold higher.

B24 had a Kd of 1910 nM.

Molecule B25 yielded a dissociation constant Kd of 192 nM.

Molecule B26 gave a Kd of 59.5 nM. Against the preceding molecule, the Kd is about 3.2-fold lower.

For B27, the Kd came to 44.3 nM.

On to B28, for which the Kd was determined as 1270 nM.

The molecule B29 displayed a Kd of 445 nM.
